Laboratory results reported in publication PMC12912723 (2026).

T1: PscF from strain PAO1 (Pseudomonas aeruginosa, UniProt P95434 1-85)
T1 chain: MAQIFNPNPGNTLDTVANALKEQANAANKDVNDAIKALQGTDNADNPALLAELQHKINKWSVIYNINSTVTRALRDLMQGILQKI

B1: P5B3 (human monoclonal antibody, IgG1) (antibody, V domains shown)
VH: EVQLVESGGGIVQPGGSLRLSCAASGFTFSSYWMHWVRQAPGKGLVWVSRINSDGSIINYADSVKGRFTISRDNAKKTLHLQMNSLRAEDTAVYYCAKDGVYDALDIWGQGTMVTVSS
VL: SYELTQPPSVSVSPGQTARITCSADALPNQYTYWYQQKPGQAPVLIMYKDSERPSGIPERFSGSSSGTTVTLTISGVQAEDEADYYCQSTDSRGTYVVFGGGTKLTVL
B2: P5G10 (human anti-PscF monoclonal antibody) (antibody, V domains shown)
VH: VQLQQWGAGLLKPSETLSLTCAVYGGSFSDYYWTWIRQAPGKGLEWIGENRHRGTTNYNPSLKGRVTISVDTSKNQFTLKVTSVTAADTAVYFCARQRGSSGGAPSGLDVWGQGTTVTVSS
VL: QSVLTQPPSASGTPGQRVTISCSGASSNIGTNYVFWYQQFPGTAPKLLIYRNGHRPSGVPDRFSGSKSGASASLAISGLRSDDEADYYCATWDDSLSSQVFGGGTKLTVL

How the values were obtained:
[1] = biological target: biotinylated PcrV (Pseudomonas aeruginosa, UniProt G3XD49 1-294, biotin); assay: BLI
[2] = biological target: T1, PscF from strain PAO1; assay: ELISA; competition with biotinylated P5G10

Row | Binder | Kd [1] | IC50 [2]
1 | B1 | 0.0239 nM | 
2 | B2 |  | 0.46 µg/mL
